# In patent publication US12371675B2, “Process and microorganism for synthesis of adipic acid from carboxylic acids” (THE GOVERNING COUNCIL OF THE UNIVERSITY OF TORONTO, priority 2015, dated 2025):
# B1: XCC0307: OYE protein from Xanthomonas campestris pv. campestris str. ATCC 33913 (protein)
# chain: MSQLFTPINFGPLALANRIVIAPMCQYSAQDGRATDWHRIHLGTLSQSGAALLILEAAAVQPQGRISYADLGLYDDATEQALGEVLASVRRWSPMPIGIQLAHAGRKASTDLPWKGGEAIAPDHANGWQTVSASALPFRDGQPLPQALDAAGIDAVVEAFVTAAKRAERLELQLIELHAAHGYLMHQFLSPLSNQRSDAYGGSLDNRMRLTLRIFDAVRAAVSDQMAIGVRISATDWVDGGWDLPQSIALSKALDARGAHYIHVSSGGLDPRQQIPVQASYQIPFAEAIRAQVDTPVIGVGLITEPQQAEAILRDGQADAIALARGILYDPRWPWHAAAALGASVTPAPQYQRCEPREARGVFAS
# B2: SAV1511: OYE protein from Streptomyces avermitilis MA-4680 (protein)
# chain: MSALFEPYSLRDLTIPNRVWMAPMCQYSAAPQGPAAGAPHDWHFAHYAARATGGTGLIVVEATAVSPEGRISPYDLGIWNDTQVEAFRRITRFLAAQGTVPAIQLAHGGRKASTDRPWKGGAPLAADEHGWQPLGPSPVAFDERHPVPTELSVAEIRQIVGQFADAARRALAAGFEIAEIHGAHGYLINEFLSPHSNRRTDEYGGSYENRVRFALEVVDAVREVWPAGKPLFFRVSATDWLDEGGWTADDTVRFAAELQAHGVDLLDVSTGGNASGVRIPTGPGYQVPFAARVKAGTSLPVAAVGLITDAEQAEKILANGEADAILLGRELLRNPSFARLAARELGGDVHVPAQYHRSV
# B3: RHA03305: OYE protein from Rhodococcus sp. RHA1 (protein)
# chain: MQHTSTTASTLFSPLKLGSTELANRVALAPMTRVSGDEDGSANESIASYYEVFAKGGFGLLITEGIYPDTKYSQGYLNQPGLATAQHADSWKPVVERVHTAGARIFAQLMHAGAQSQGNRYVTETIAPSTTPPLGEQLGFYGGTGPYATPRALSLRDIDDVCAGFAQAAQHAVAAGFDGVEIHGANGYLLDQFLTDYMNQRDDEYGGSLANRLKIYREVIAAVRQVVGSKVTVGVRISQSKVSDYNHRWAGGESDAAEIFQGLAETGVDYIHTTEFDATAPAFADSGTTLAAFATKYSGLPVIANGQLGDPAAADALIENGSAQVISLGKPALANRDWPQRALDAKPIQSDVDPSVFSPMATVKSWELSA
# B4: BH1481: OYE protein from Bacillus halodurans C-125 (protein)
# chain: MEHKLFSSYVVKGVTLKNRIVMSPMCMYSSDQKDGKIRPFHISHYESRAAGQVGLIIVEATAVTPQGRISPYDLGIWSDDHISGLTETVERIHAHGAKAAIQLAHAGRKAELDGPIIAPSAISYDKMKTPDAMTEEQISETIEAFKLGALRAKKAGFDIIEIHGAHGYLINEFLSPLTNKRTDAYGGSLENRYRLLREIISEIQTVWDGPLFVRISAAEYAEGGNELSDFITLAKWMKKQGIDLIDCSSGAVVPAPIPVYPGYQVPLAEAIRHEANIATGAVGLITSGIQAEEILQNERADLIFVARELLRNPYWPREAALELGTTISGPSQYDRAWL
# B5: CV3501: OYE protein from Chromobacterium violaceum ATCC 12472 (protein)
# chain: MNADKLLTPLTMGAVALSNRVVMAPLTRLRNIEPGDVPGPLAKEYYRQRASAGLIVAEGTHISPTAKGYAGAPGIYSEEQVRAWSEVTGAVHQDGGKIALQLWHTGRISHRSLQPNGDAPVGPSAIQADSRTNIRAADGSLVREQCDTPRALEIEEIEDIIEDYRRAADNARRAGFDMVEIHGAHGYLIDQFLSPAANVRTDQYGGSVENRARFLLEVVDAVVAEWDADHVGIRISPLGIFNGVSNTDQLDMALYLAEQLAKRKLAFLHISEPDWAGGPTLDDGFRAELRQRYPGVIIGAGGYSAEKAETLLKKGFIDAAAFGRSYIANPDLVERLKQNAPLNPPKPDTFYGGGAEGYTDYPTL
# B6: PSPH4058: OYE protein from Pseudomonas syringae phaseolicola 1448A (protein)
# chain: MTTIFDPITIGDLQLPNRIIMAPLTRCRADEGRVPNALMSEYYVQRASAGLILTEATSVTPMGVGYPDTPGIWSNDQVRGWSNITKAVHTAGGRIVLQLWHVGRISHPAYLNGETPVAPSAIAAEGHVSLMRPITPLPTPRALELAEIGDIVEAYRVGAENAKAAGFDGVEVHGANGYLLEQFLLTGSNQRTDEYGGSVENRARLLLEVTDAVIEVWGAGRVGVHLSPRFDMHDMSDANRTETFSYVAKELGKRGIAFICARERDAEDSLGPQLKKDFGGVYIANEKFTKDTANTWLAEGKADAIAFGVPYIANPDLPERLASDAPLNEAHPETFYGKGPVGYIDYPRL
# B7: PA1146: aldehyde reductase (AR) from Pseudomonas aeruginosa (protein)
# chain: MSDLHYWNYPTDILCGVGALEQLPRRCALAGARRPLLVTDPGMRALEPLRLVRECLERAGIDHDLFHELSSNPSLAEVQGGARRFEAGGHDALIALGGGSALDAAKGIALLSRDPHGLERFEWTQTLRSYPTLADYPPLGLPPLLALPTTAGTGSELGREAVLTDTQLGIKRVVGHRELLAACVFLDPRLTRGLPPALSAATGMDALTHHLEALFSPLYHPMSAGIALEGVRLVRQHLENAVRDGNDLAAREGMLVASASAAVAFQKGLGGVHALAHPLGARHHLHHGLLNAVLLPYVLLANRPAIEADAARLARYLELDEASFDGLLAWILELRARIGIPANLAALGLDGEDAQWVGEQALADLSSSATNALPLDARDYARIYRQAVAGTLA
# B8: PSPTO_2097: aldehyde reductase (AR) from Pseudomonas syringae (protein)
# chain: MIEHLKLAGKVALVQGGSRGIGAAIVNRLAKEGAAVAFTYINSEVNALEIQDSINANGGRALAIRADSADEKAIRQAVQTTAETLGRLDILVNNAGVLAIAPLNEFSMQDFDKTLAINVRSVFIASQEAARHMEEGGRIINIGSTNAERMPFAGGATYAMSKSALIGLTKGMARDLGPQGITVNNVQPGPVDTDMNPAQGEFAESLKALMALPRYGKSEEIASFVAYLAGPEAGYITGASLTIDGGFSA
# B9: PP_3370: aldehyde reductase (AR) from Pseudomonas putida (protein)
# chain: MQYVKLGSTGLDISRLCLGCMTFGEPDAGTHPWTLGEDASRPIIRHAVEQGINFFDTANSYSAGTSEIILGKLLREFTRREETVIATKVFFPANMWEGASRPNEQGLSRKAIMANIDASLSRLGTDYVDLYQIHRWDYHTPIEETMEALHDVVKAGKARYIGASSMYAWQFAKAQQVAANHGWSRFVSMQNYLNLIYREEEREMIPLCLDQGVGLMPWSPMARGRLTRPHGQQTQRTRTDVSGQSFYEKTEVEDGRVIDVVEQIASERGVPMAQVALAWVLGRAGVSAPIVGASKPAHLDDALGALSLQLSEDEVARLQAPYVPHAVTGFK
# B10: BH2491: aldehyde reductase (AR) from Bacillus halodurans (protein)
# chain: MLQGKTAIVTGASRGIGRATAMELARHGANVVVNYAGNKEKAEKVVAEIKELGVEAIAIQADVADSESVQAMVKETIDTFGAVDILVNNAGITRDNLFMRMKEEDWDAVIDTNLKGVFHCSKAVTRPMMKQRFGRIINVSSVVGAIGNAGQANYVAAKAGVIGLTKTLARELANRNITVNAVAPGFIETDMTGELPEDVKAQMLGQIPLARLGQPEEVAKAVRFLASDDASYLTGQTIHVNGGMVM
# B11: PA2918: aldehyde reductase (AR) from Pseudomonas aeruginosa (protein)
# chain: MVDHSIKGKTVLITGGAKNLGGLIARDLAAHGAKAITIHYNSAASKADADATVAALQAAGAKAVALQGDLTSAAAMEKLFADAIAAVGKPDIAINTVGKVLKKPITEISETEYDEMSAVNSKSAFFFLREAGKHVNDNGKICTLVTSLLGAYTPYYAAYAGTKAPVEHFTRAASKEFGARGISVTAVGPGPMDTPFFYPAEGADAVDYLKNAAALSPFSKTGLTDIDDVVPFIRHLVSEGWWITGQTILINGGFSTK
# B12: CV_2177: aldehyde reductase (AR) from Chromobacterium violaceum (protein)
# chain: MRRLEGKQALITGGTSGIGLETAKQFLAEGAKVAITGRSEAGLAQANEVLGGRALLLKSDAGSLDDQRALPAQLRSHGWSRLDAAYLNAGDVTHLPLADWSEADFDRVMAVNLKGPFFLLQALSPLLANPSSVILCGSVGARIGVPSSSAYAASKAGLLSLARTLSAEWLDRGIRVNGLSPGPTHTPAFGKLGMPEDELPALRDRIRKLVPLGRLGRPEELAKAAVFLASDESSYMLGSELLVDGGVGNV
# Experiment: OYE hydrogenation activity screen, NADPH oxidation at 340 nm
# Type: biochemical
# Conditions: 1 mM substrate, 0.25 mM NADPH, 2.5 μg protein; cut-off 0.05 U/mg protein; ND = not detected
# Experimental: 25 putative OYE genes (Table 1) were cloned based on the Pfam domain of the FMN oxidoreductase family PF00724. Purified OYEs were screened for hydrogenation activity against acrolein, 2-cyclohexn-1-one, cis,cis-muconic acid, trans,trans-muconic acid, and 2-hexendioic acid. Substrate specificity was measured spectrophotometrically in 96-well plates by following incubation for 20 min at room temperature in the anaerobic chamber. Buffers and reagents were also degassed and sparged with Ar. Reaction mixtures contained potassium phosphate (50 mM and pH 7.0), NaCl (10 mM), NADPH (0.25 mM), various substrates (1 mM) and protein (2.5 μg) in a final volume of 200 μL. Enzyme reactions were monitored by following the decrease in absorbance at 340 nm (ε340 nm=6,200/M·cm) as a measure of the conversion of the cofactor NADPH to NADP+.
Molecule,Activity [U/mg protein] 2-cyclohexen-1-one [U/mg protein],Activity [U/mg protein] acrolein [U/mg protein]
B1,0.15,
B2,0.23,0.05
B3,,0.08
B4,0.13,
B5,0.07,
B6,0.22,

# Experiment: AR reductase activity, NAD(P)H oxidation at 340 nm
# Type: biochemical
# Conditions: 10 mM, 1.8% DMSO; ND = no activity was detected
# Experimental: Enzyme activity of purified ARs was measured spectrophotometrically in 96-well plates Reaction mixtures contained 100 mM HEPES buffer (pH 7.5), 0.4 mM NADH/NADPH, 10 mM adipaldehyde or butylaldehyde, and proteins (10 μg for adipaldehyde screen, 2 μg for butyraldehyde screen) in a final volume of 200 μL Reaction mixture for adipaldehyde screening contained 1.8% DMSO. Enzyme reactions were monitored by following the decrease in absorbance at 340 nm (ε340 nm=6,220/M·cm) due to oxidation of NAD(P)H to NAD(P)+.
row,Molecule,Activity [U/mg protein] Adipaldehyde [U/mg protein]
1,B7,0.696 ± 0.032
2,B8,1.046 ± 0.009
3,B9,0.437 ± 0.043

# Same assay, conditions: 10 mM; ND = no activity was detected
row,Molecule,Activity [U/mg protein] Butyraldehyde [U/mg protein]
1,B10,0.108 ± 0.026
2,B11,0.137 ± 0.03
3,B7,1.68 ± 0.144
4,B8,0.59 ± 0.597
5,B12,0.151 ± 0.054
6,B9,1.516 ± 1.382
